Test results from patent US20040254341A1 (published 2004).
Non-standard residues stand in square brackets, D forms with d. No end group written: not given here. Nle = CCCC[C@H](N)C(=O)O

Biological target: human Asp2 aspartyl protease (Hu-Asp2), purified enzyme used in the in vitro cleavage assays (human, UniProt P56817 46-456, limits assumed)
Experiment: cell-based or functional assay

human Asp2 aspartyl protease (Hu-Asp2), purified enzyme used in the in vitro cleavage assays, sequence (P56817 46-456 Q214H limits assumed): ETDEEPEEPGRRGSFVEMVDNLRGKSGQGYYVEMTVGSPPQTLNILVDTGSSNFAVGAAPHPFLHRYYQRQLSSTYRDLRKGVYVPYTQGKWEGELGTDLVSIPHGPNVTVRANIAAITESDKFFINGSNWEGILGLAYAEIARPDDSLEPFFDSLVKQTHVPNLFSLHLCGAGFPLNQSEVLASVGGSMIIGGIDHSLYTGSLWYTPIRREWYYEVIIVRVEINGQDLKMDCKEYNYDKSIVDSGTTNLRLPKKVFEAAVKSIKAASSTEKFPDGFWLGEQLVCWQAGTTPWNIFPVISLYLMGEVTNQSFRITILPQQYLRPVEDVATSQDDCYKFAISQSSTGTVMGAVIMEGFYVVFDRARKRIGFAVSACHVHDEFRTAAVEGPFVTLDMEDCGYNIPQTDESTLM

B1: KTITL-↓-EVEPS (peptide)
peptide: KTITLEVEPS
B1 was tested, and the “activity against wild type peptide” value was 6 fold.

B2: KTINnle-↓-DVDPS (peptide)
peptide: KTIN[Nle]DVDPS
With B2 the “activity against peptide #3 (SEQ ID NO:134)” value was roughly 10 fold reduction.

B3: KTISL-↓-DVEPS (peptide)
peptide: KTISLDVEPS
B3 was tested, and the “activity against wild-type peptide” value was roughly 35 fold.

B4: SEVSY-↓-DAEFR (peptide)
peptide: SEVSYDAEFR
With B4 the activity against wild-type was roughly 9 fold.

B5: SEVSY-↓-EAEFR (peptide)
peptide: SEVSYEAEFR
B5 showed an activity against wild-type of roughly 40 fold.

B6: SEVSY-↓-EVEFR (peptide)
peptide: SEVSYEVEFR
B6 was tested, and the “activity against wild type peptide” value was roughly 70 fold.
